According to PMC6107277, “Distinct substrate specificity and physicochemical characterization of native human hepatic thymidine phosphorylase” (PLoS ONE, 2018):

Columns and labels:
[1] = target: the molecule itself; test: AUC; sedimentation equilibrium, Beckman XL-A, 15,000 rpm, 20°C, Buffer A, 0.4, 0.2 and 0.1 mg protein/mL, absorbance at 278 nm; global fit to a monomer-dimer-tetramer association model; constants for monomer to dimer (1,2) and dimer to tetramer (2,4)
[2] = target: the molecule itself; test: SEC + native gel or EMSA; hydroxyapatite homogeneously purified TP (first peak) on Sephadex G-100 in Buffer A (20 mM potassium phosphate pH 8.0, 1 mM DTT, 1 mM EDTA, 1 mM PMSF), 4°C, calibrated with standard proteins; native-PAGE on 10% gel; native about 100 kDa against about 52 kDa on SDS-PAGE

B1: native human hepatic thymidine phosphorylase (enzyme, human (endogenous in liver), UniProt P19971 11-482, looked up)
chain: APPAPGDFSGEGSQGLPDPSPEPKQLPELIRMKRDGGRLSEADIRGFVAAVVNGSAQGAQIGAMLMAIRLRGMDLEETSVLTQALAQSGQQLEWPEAWRQQLVDKHSTGGVGDKVSLVLAPALAACGCKVPMISGRGLGHTGGTLDKLESIPGFNVIQSPEQMQVLLDQAGCCIVGQSEQLVPADGILYAARDVTATVDSLPLITASILSKKLVEGLSALVVDVKFGGAAVFPNQEQARELAKTLVGVGASLGLRVAAALTAMDKPLGRCVGHALEVEEALLCMDGAGPPDLRDLVTTLGGALLWLSGHAGTQAQGAARVAAALDDGSALGRFERMLAAQGVDPGLARALCSGSPAERRQLLPRAREQEELLAPADGTVELVRALPLALVLHELGAGRSRAGEPLRLGVGAELLVDVGQRLRRGTPWLRVHRDGPALSGPQSRALQEALVLSDRAPFAAPSPFAELVLPPQQ
modifications: N-terminal blocked by an unknown moiety (neither N-formyl nor pyrrolidone carboxylic acid)
notes: thymidine phosphorylase / PD-ECGF, human liver, native subunit of about 50 kDa (49,882 by electrospray MS); DPSPEPKQ = 28-35; Native tissue protein; also called TP; human liver TP; source: purified from human liver (autopsy material) by DEAE-cellulose, Phenyl Sepharose CL-4B and hydroxyapatite chromatography; also used as DEAE-cellulose partially purified fraction and as 50,000 x g liver cytosol
For B1, the “Ka (1,2), monomer to dimer” value [1] was 581000 M⁻¹, the “Ka (2,4), dimer to tetramer” value [1] was 10100 M⁻¹ and the “stoichiometry N” value [2] was 2.
